According to patent publication US7097988B1 (ADVANCED RESEARCH AND TECHNOLOGY INSTITUTE, dated 2006):
Like-named read-outs stand apart in the source and are kept apart here. Ends that are not written are not given here.

Columns and labels:
[1] = target: T1, novel member of the opioid receptor gene family (SEQ ID NO: 17) (Rattus norvegicus, UniProt P35370); type: cell-based
T1 construct: mRNA of this clone was synthesized by in vitro transcription and coinjected into Xenopus oocytes; expressed in transfected cells; host or cells: Xenopus oocytes (mRNA injection)
T1 sequence (P35370 whole entry): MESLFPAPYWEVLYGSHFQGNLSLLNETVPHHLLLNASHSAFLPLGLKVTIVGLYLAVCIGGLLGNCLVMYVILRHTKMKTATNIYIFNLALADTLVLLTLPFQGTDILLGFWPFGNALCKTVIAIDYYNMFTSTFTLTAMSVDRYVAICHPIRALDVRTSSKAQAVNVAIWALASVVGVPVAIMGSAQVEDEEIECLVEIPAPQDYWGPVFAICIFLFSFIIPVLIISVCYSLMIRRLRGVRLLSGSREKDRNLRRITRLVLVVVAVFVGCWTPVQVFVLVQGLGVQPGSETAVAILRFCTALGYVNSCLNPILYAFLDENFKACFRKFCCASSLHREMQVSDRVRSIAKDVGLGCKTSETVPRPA

rat μ opioid receptor = target: T2, rat μ opioid receptor (Rattus norvegicus, UniProt P33535, V245I); type: binding
T2 construct: A plasmid containing a 1.4 kb cDNA for the rat μ opioid receptor in a mammalian expression vector pRc/CMV has been described; expressed in transfected cells

[2] = target: T3, cloned human mu opioid receptor (human, UniProt P35372 1-400); experiment: displacement of […] [3H]DAMGO; membranes of COS-7 cells expressing the human µ receptor
T3 construct: Full-length receptor expressed from pcDNA3 in COS-7 cells (membranes) or from mRNA in Xenopus oocytes; also called human µ opioid receptor; human µ receptor

[3] = target: T4, human μ opioid receptor coupled to G protein-activated K+ channel (Homo sapiens, UniProt P35372); type: cell-based
T4 construct: Messenger RNAs encoding both proteins (Chen and Yu, 1994) were generated by in vitro transcription and injected into Xenopus oocytes; expressed in transfected cells; host or cells: Xenopus laevis oocytes (mRNA injection)

[4] = target: T5, rat μ-opioid receptor MOR-1 (Rattus norvegicus, UniProt P33535, V245I); experiment: biochemical; type: binding
T5 construct: A 1.4-kilobase HindIII fragment encompassing the open reading frame from the cDNA encoding MOR-1 was cloned; expressed in transfected cells; host or cells: COS-7

[5] = target: T6, cloned human μ opioid receptor (Homo sapiens, UniProt P35372); details: read-out: Binding potencies (Ki-nM), human μ receptor, [3H]DAMGO
T6 construct: the cDNA containing the open reading frame of the receptor was cloned downstream of the human cytomegalovirus promoter in the mammalian expression vector pcDNA3; expressed in transfected cells; host or cells: COS-7 (transient)

[6] = target: T7, human μ receptor (adenylyl cyclase) (Homo sapiens, UniProt P35372); type: cell-based
T7 construct: the cDNA containing the open reading frame of the receptor was cloned downstream of the human cytomegalovirus promoter in the mammalian expression vector pcDNA3; expressed in transfected cells; host or cells: COS-7 (transient)

[7] = target: T8, rat mu opioid receptor MOR-1 (rat, UniProt P33535 1-398); experiment: [3H]DAMGO binding to COS-7 membranes with 100 mM GTPgS in the assay
T8 construct: Full-length receptor expressed from the cDNA in COS-7 cells (membranes), stably in CHO cells (membranes, whole cells) or in Xenopus oocytes; also called rat µ-opioid receptor; cloned rat µ receptor

[8] = target: T3, cloned human mu opioid receptor; experiment: as above
[9] = target: T8, rat mu opioid receptor MOR-1; experiment: saturation binding of [3H]DAMGO; membranes of stably transfected CHO cells
[10] = target: T8, rat mu opioid receptor MOR-1; experiment: whole-oocyte binding of 1 nM ^3H-DAMGO; oocytes injected with mRNAs for the µ receptor and the K^+ channel
[11] = target: T3, cloned human mu opioid receptor; experiment: saturation binding; membranes of COS-7 cells expressing the human µ receptor
[12] = target: T8, rat mu opioid receptor MOR-1; experiment: displacement of 0.25 nM [3H]diprenorphine; membranes of COS-7 cells expressing MOR-1
[13] = target: T8, rat mu opioid receptor MOR-1; experiment: saturation binding; membranes of stably transfected CHO cells
[14] = target: T8, rat mu opioid receptor MOR-1; experiment: [3H]DAMGO binding to membranes of COS-7 cells pretreated with pertussis toxin
[15] = target: T3, cloned human mu opioid receptor; experiment: as above
[16] = target: T3, cloned human mu opioid receptor; experiment: saturation binding, Scatchard analysis; membranes of COS-7 cells expressing the human µ receptor
[17] = target: T8, rat mu opioid receptor MOR-1; experiment: cell-based or functional assay
Mu2 site = details: Clark et al., 1988; cited from earlier work
[18] = target: mu opioid receptor (DAMGO sites); details: read-out: affinity (displacement of radiolabeled DAMGO); Vaughn and Taylor, 1989; cited from earlier work
Mu1 site = details: Clark et al., 1988; cited from earlier work
[19] = target: μ opioid receptor (PL-17 sites), guinea pig brain membranes; details: read-out: affinity (displacement of radiolabeled PL-17); Kawasaki et al., 1990; cited from earlier work
[20] = target: human μ opioid receptor hμOR1 (Homo sapiens, UniProt P35372, D51N)
[21] = target: T9, rat μ opioid receptor coupled to G protein-activated K+ channel (Rattus norvegicus, UniProt P33535, V245I); type: cell-based
T9 construct: A cDNA clone, MOR-1, containing the protein coding region of a rat μ opioid receptor has been described; expressed in transfected cells; host or cells: Xenopus oocytes (mRNA injection)

[22] = target: T3, cloned human mu opioid receptor; experiment: inhibition of 2 nM [3H]DAMGO binding; membranes of COS-7 cells expressing the human µ receptor
[23] = target: T8, rat mu opioid receptor MOR-1; experiment: inhibition of [3H]DAMGO binding; membranes of COS-7 cells expressing the rat µ receptor

## CC1(C)SSC(C)(C)[C@@H](NC(=O)[C@@H](N)Cc2ccc(O)cc2)C(=O)NCC(=O)N[C@@H](Cc2ccccc2)C(=O)N[C@H]1C(=O)O [DPDPE, [D-Pen^2.5]-enkephalin]
[1]
  induction of potassium conductance (in words): no potassium conductance was induced

## Nc1nc2c(ncn2[C@@H]2O[C@H](COP(=O)(O)OP(=O)(O)OP(=O)(O)O)[C@@H](O)[C@H]2O)c(=O)[nH]1 [GTP]
Rat μ opioid receptor
  effect on specific [3H]DAMGO binding (in words): decrease the specific binding

## Nc1nc2c(ncn2[C@@H]2O[C@H](COP(=O)(O)OP(=O)(O)NP(=O)(O)O)[C@@H](O)[C@H]2O)c(=O)[nH]1 [Gp(NH)pp]
Rat μ opioid receptor
  effect on specific [3H]DAMGO binding (in words): decrease the specific binding

## [D-Pen^2,5]-enkephalin (peptide)
[2]
  IC50: > 1000 nM

## CC1=C[C@H]2[C@@]3(O)[C@H](C)[C@@H](O)[C@]4(O)[C@H]([C@@H]3C=C(CO)C[C@@]2(O)C1=O)C4(C)C [4α-phorbol]
[3]
  second DAMGO response relative to the first (peak current): 87%+2%

## COC(=O)/C=C/C(=O)N[C@@H]1CC[C@@]2(O)[C@H]3Cc4ccc(O)c5c4[C@@]2(CCN3CC2CC2)[C@H]1O5 [β-funaltrexamine]
[4]
  Ki values (in words): nanomolar range
[4]; read-out: Ki values
  Ki: 1.3 ± 0.1 nM
[5]
  Ki: 0.29 nM

## Leu-enkephalin
[6]
  effect on forskolin-stimulated cAMP accumulation (in words): significantly reduced

## [D-Ala^2, N-Me-Phe^4, Gly-ol^5]-enkephalin (peptide)
[7]
  decrease of specific labelling by GTPgS: 55%
[8]
  decrease of specific labelling by GTPgS: 65%
[9]
  Bmax (fmol/mg membrane protein): 630
  Kd: 0.47 nM
[10]
  specific binding: 1 fmol/oocyte
[11]
  Bmax (fmol/mg membrane protein): 381
[12]
  Ki: 2.8 nM
[13]
  Kd: 1 nM
[14]
  decrease of labelling after PTX-pretreatment: 42%
[15]
  decrease of labelling after PTX-pretreatment: 79%
[16]
  Bmax: 232 fmol/mg
  Kd: 1 nM
[17]
  DAMGO/control (cAMP with forskolin plus DAMGO over forskolin only), morphine-treated cells: 42.4%
  DAMGO/control (cAMP with forskolin plus DAMGO over forskolin only), naive cells: 71.9%
  EC50 of inhibition of forskolin-stimulated intracellular cAMP, naive transfected CHO cells: 30 nM
  GTPase activity of G proteins, stably transfected CHO cells, 10 µM DAMGO: 30%
  barium current through a voltage-activated calcium channel, Xenopus oocytes with the channel and the mu opioid receptor, 1 µM DAMGO: > 80 % reduction
  intracellular cAMP level after forskolin, COS-7 cells expressing MOR-1, 100 nM DAGO: 18.1 % reduction
  intracellular cAMP level, Forskolin + DAMGO (1 µM), morphine-treated cells (fmol/1 × 10^3 cells): 38.9
  intracellular cAMP level, Forskolin + DAMGO (1 µM), naive cells (fmol/1 × 10^3 cells): 25.6
  low Km GTPase activity, membranes of stably transfected CHO cells, 1 µM DAMGO: 33%
  maximal inhibition of intracellular cAMP, naive transfected CHO cells: 25%
  maximal inhibition of intracellular cAMP, transfected CHO cells treated with morphine for 24 hr: 60%

## cyclic somatostatin (peptide)
[12]
  IC50: 11000 nM

## CN1CC[C@]23CCCC[C@H]2[C@H]1Cc1ccc(O)cc13 [levorphanol]
[6]
  effect on forskolin-stimulated cAMP accumulation (in words): decreased cAMP accumulation

## Dynorphin A
Mu2 site
  Ki: 2.2 nM
[18]
  Ki: 3 nM
Mu1 site
  Ki: 0.7 nM
[19]
  Ki: 5 nM
[20]
  difference in Ki between the inventor's clone and the clone of Wang et al.: over 100 fold

## CCCCCCCCCCCCCC(=O)O[C@@H]1[C@@H](C)[C@@]2(O)[C@@H](C=C(CO)C[C@]3(O)C(=O)C(C)=C[C@@H]23)[C@@H]2C(C)(C)[C@]12OC(C)=O [PMA, phorbol 12-myristate 13-acetate]
[3]
  second DAMGO response relative to the first (peak current): 29%+7%
[21]
  effect of kinase modulators on desensitization (in words): further reduced the second response

## Nc1ncnc2c1nc(Sc1ccc(Cl)cc1)n2[C@@H]1O[C@@H]2COP(=O)(O)O[C@H]2[C@H]1O [8-CPT-cAMP, 8-chlorophenylthio-cAMP]
[21]
  effect of kinase modulators on desensitization (in words): completely abolished the desensitization

## CTOP, D-Phe-Cys-Tyr-D-Trp-Orn-Thr-Pen-Thr-NH2 (peptide)
[22]
  Ki: 3.9 nM

## COc1cccc2c1[C@]13CCN(CC4CC4)[C@H](C2)[C@]1(OC)CCC(=O)C3 [Cyprodime]
[4]
  Ki: 9.1 ± 2.8 nM
  Ki values (in words): nanomolar range

## GGFMTSEKSQTPLVTLFKNAIIKNAYKKGE [des-Tyr^1-β-endorphin]
[5]
  Ki: > 1000 nM

## CC(C)C[C@H](NC(=O)[C@H](Cc1ccccc1)NC(=O)CNC(=O)[C@@H](CO)NC(=O)[C@@H](N)Cc1ccc(O)cc1)C(=O)N[C@H](C(=O)O)[C@@H](C)O [DSLET, [D-Ser, Leu^5, Thr^6]-enkephalin]
[4]
  Ki: 314 nM

## YGGFMTSEKSQTPLVTLFKNAIIKNAYKKGE (peptide, UniProt P01189 237-267, looked up, mature) [β-endorphin]
[23]
  Ki: 1.7 nM

## AGCKNFFWKTFTSC (peptide, UniProt P61278 103-116, looked up, mature) [Somatostatin-1-14]
[12]
  IC50: 730000 nM
